Assay results from PMC6221358, “The Zn2Cys6-type transcription factor LeuB cross-links regulation of leucine biosynthesis and iron acquisition in Aspergillus fumigatus”.

T1: LeuB DBD (LeuBM50-125YS, SPR) (Aspergillus fumigatus, UniProt Q4WI12 224-299)
T1 sequence: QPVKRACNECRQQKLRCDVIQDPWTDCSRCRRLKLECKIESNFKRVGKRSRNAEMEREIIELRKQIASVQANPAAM


Molecular target: T1, LeuB DBD (LeuBM50-125YS, SPR)
Assay: SPR; 10 uM ZnCl2; 30 ug/ml poly(dAdT); SPR: 10 mM HEPES pH 7.4, 150 mM NaCl, 0.005% P20, 5 mM beta-mercaptoethanol, 10 uM ZnCl2, 25 C, LeuB DBD 6.25-400 nM with 30 ug/ml poly(dAdT); EMSA: as previously described (not given), 1 ug salmon sperm DNA as nonspecific or 100-fold cold probe as competitor
Settings: protein: recombinant; tags: none stated; chain copies: 2; label: biotin; 16 bp duplex

Binder | Kd [nM]
hapX 16 bp SPR duplex (dsDNA) DNA 1: CCGCCGAAATCGGGAA DNA 2: TTCCCGATTTCGGCGG | 160
leuA 16 bp SPR duplex (dsDNA) DNA 1: GGACCGATGTCGGATC DNA 2: GATCCGACATCGGTCC | 95.2
